Source: the supplement of paper PMC9170038

Test system: MS2 coat protein
Experiment: apparent KD of MS2 coat protein; higher = weaker reporter binding
Settings: Eterna round: R107
Experimental: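 RNA-MaP round R107: designed RNA switches with theophylline, tryptophan, arginine or FMN aptamers are transcribed on-chip within common flanks. They are titrated with SNAP-549-labelled MS2 coat protein in RNA-MaP buffer (100 mM Tris pH 7.5, 80 mM KCl, 4 mM MgCl2), without ligand or with the indicated ligand. Median apparent KD per design.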

[1] = input ligand: theophylline 20 uM
[2] = input ligand: theophylline 2 mM
[3] = input ligand: tryptophan 2.4 mM

Sequence	apparent KD of MS2 coat protein (input ligand: arginine 13.2 mM)	apparent KD of MS2 coat protein (input ligand: none)	apparent KD of MS2 coat protein [1]	apparent KD of MS2 coat protein [2]	apparent KD of MS2 coat protein [3]
GCUAGGUCUACGGCCGCCACUAGACGUGGGUAAGACAUGAGGAUCACCCAUGUACUACAGGCGAAUAGGACCGGGUAGACCUAGC [SSTB NP+V+V2 #12 Same Structure]	58.2 nM	36.4 nM	55 nM	46.1 nM	15.1 nM
ACGUAAUGCAGAAGGAGCGUCAUUUUAAAACAUGAGGAUCACCCAUGUAAUAUUUUUGUGUGACAGGUAGGUCGCUGAAGUACGA [JR_SSArginiB_Sub007]	13.9 nM	13.4 nM	17.7 nM	14.4 nM	11.8 nM
ACUUGGUGGUGAUCCCUGCCAAGAGGUGAUACCAGCAUCGAAAGAUGCCCUUGGCAGCACCAACAUGAGGAUCACCCAUGUAAUA [(MT)''-(M)'-(T')-(Theo)-(Ms2)_Design1/22_6]	62.6 nM		185 nM		214 nM
GGGUGGUAGGCGGCCGCCACUGAUUUUUAUUUAUAGAUGACAUGAGGAUCACCCAUGUUUAUAUGCAGGACCGGGCCUGUUGUGG [aaaQ]	12 nM		22.5 nM	17.6 nM	
GCUACAUGAGGAUCACCCAUGUGUACUGAAGGAGCGGCGGAAACGCCAGGUAGGUCGCAGUAUGUGGCUCUGGGCACGAGAUGGC [SSAA NP+V+V2 #1]	20.1 nM	33.6 nM	39.4 nM	35.9 nM	33.7 nM
GCACCAGGUACGGAUACCAGACAUUGCCGUUAGGGUGAACAUGAGGAUCACCCAUGUUUUGUCCCUUGGCAGCCGUACCUGGUGC [ETB NP+V+V2 #7 Same Structure]	9.58 nM	9.57 nM	14.7 nM	86.5 nM	9.85 nM
AAUUCCUCACAUGAGGAUCACCCAUGUGAAGGAGCGCCGAAUAAGGCAGGUAGGUCGCACAUGGAAACCGCUGCGAAAGCAGCAA [MAT - Exclusion Arginine A - Mod of Eli - D25]	21 nM	21.7 nM	33.2 nM	25 nM	24.5 nM
CGCGCGACAUGAGGAUCACCCAUGUUCCCUCGAGGACCGGUACGGCCGCCACUCGAGGACAUGAGCAUCAGCCAUGUACCGGUCA [Default title]	28.8 nM		54.6 nM	66.2 nM	
UAUAUAGAAGGAAGUCAUAUAGUUGCAGAAGGAGCGUAGGAAACUACAGGUAGGUCGCUGAGGUACAUGAGGAUCACCCAUGUAG [SSArg A #16 Slice of Pi]	31.1 nM	23.6 nM	41 nM	29.7 nM	27.2 nM
GUGUUAUGCUCGGCCGCCACUCUGACAUGAGGAUCACCCAUGUUGUACAUGAGGAUCACCCAUGUGAGGACCGGGAGAAACACGA [Exclusion Tryptophan B GF9]	191 nM	193 nM	191 nM	209 nM	274 nM
UUUUUUAACAUGGCGUAUCGGAAAACCGAUACCAGUACAGAAAUGUACCCUUGGCAGCGGCGUUUUACAUGAGGAUCACCCAUGU [Ex Theophylline A 3]	21.2 nM		65 nM		27.7 nM
UCGUGGUCCGCAAGGACCGGGAGUUGCGAUACCAGCACGGUAACGUGCCCUUGGCAGCGCACAUGAGGAUCACCCAUGUGGUGUU [#1 Exclusion - Theophylline A Attempt #14 (HarryS)]	40.9 nM		305 nM		174 nM
AGAUGUAGCGGAAGGAGCGUCAUGAGGAUCACCCAUGGCUCCCGUUGUGGGAGUUCCUUAGGUCAGGUAGGUCGCCGUUACGUCA [Omei Arg B SS B v6]	79.7 nM	359 nM	187 nM	254 nM	137 nM
GGACCAGGGAGCGAUACCAGCUUGAGUGUGCUGGCCAGGCACAUGAGGAUCACCCAUGUAAGCCCUUGGCAGCGCUCCCUGGUCC [#1 Exclusion - Theophylline B Attempt #27 (HarryS)]	6.87 nM	9.65 nM	15.3 nM	13.9 nM	11.1 nM
UCGGGAACAUGAGGAUCACCCAUGUCAGAAGGAGCGCUGAGAGAAGCAGGUAGGUCGCUGACGCAGGAGCUCUCUUCCUGUACGC [#22 Exclusion - Arginine A]	96.2 nM	33.8 nM	46.4 nM	22.6 nM	15.9 nM
ACAAGUCCUCAUGAUACCAGCGAUGAGACAUAGUCUCAACAUGAGGAUCACCCAUGUAUUCGCCCUUGGCAGCAUACGGUUUUUG [Arleer]	85.1 nM		373 nM		517 nM
AAUCGUAAGGCGGCCGCCACUACACAUGAGGAUCACCCAUGUCUCGCAGGCUUGCGUUGGGAUAGUAGGACCGGGCCAGUAAUAA [Exclusion - Tryptophan B (Freestyle 14)]	18.5 nM		28.8 nM	26.6 nM	
GGUUACUCUACGGCCGCCACUGAUUAAUUAUAAACCUGUACAUAAACAUGAGGAUCACCCAUGUACAGGACCGGGUAGUGUAACC [Tryptophan B 9]	30.5 nM		46.9 nM	39.1 nM	
